Reference: patent US20230357348A1 (AstraZeneca / MedImmune, published 2023)
Starred links: 1 amine or outer side, 2 acyl side, 3 side chain; linkers in the order of their positions; H or OH if unused. Non-standard residues stand in square brackets, D forms with d. Groups on a side chain read outwards from the residue. No end group written: not given here. *: point of attachment. C20 diacid = O=C(O)CCCCCCCCCCCCCCCCCCC(=O)*; C18 diacid = O=C(O)CCCCCCCCCCCCCCCCC(=O)*; γGlu = O=C(O)[C@H](CCC(=O)[*:2])N[*:1]; αMeF = C[C@](N)(Cc1ccccc1)C(=O)O; AEEA = NCCOCCOCC(=O)O; Aib = CC(C)(N)C(=O)O

B1: Peptide 511 (peptide)
peptide: H[Aib]QGTFTSDVSK[αMeF]LDTK([AEEA-AEEA-γGlu-C20 diacid])RARDFVRWLL[Aib]E-NH2
modifications: N-terminus assumed
SMILES: CC(C)C[C@H](NC(=O)[C@H](Cc1c[nH]c2ccccc12)NC(=O)[C@H](CCCNC(=N)N)NC(=O)[C@@H](NC(=O)[C@H](Cc1ccccc1)NC(=O)[C@H](CC(=O)O)NC(=O)[C@H](CCCNC(=N)N)NC(=O)[C@H](C)NC(=O)[C@H](CCCNC(=N)N)NC(=O)[C@H](CCCCNC(=O)COCCOCCNC(=O)COCCOCCNC(=O)CC[C@H](NC(=O)CCCCCCCCCCCCCCCCCCC(=O)O)C(=O)O)NC(=O)[C@@H](NC(=O)[C@H](CC(=O)O)NC(=O)[C@H](CC(C)C)NC(=O)[C@](C)(Cc1ccccc1)NC(=O)[C@H](CCCCN)NC(=O)[C@H](CO)NC(=O)[C@@H](NC(=O)[C@H](CC(=O)O)NC(=O)[C@H](CO)NC(=O)[C@@H](NC(=O)[C@H](Cc1ccccc1)NC(=O)[C@@H](NC(=O)CNC(=O)[C@H](CCC(N)=O)NC(=O)C(C)(C)NC(=O)[C@@H](N)Cc1c[nH]cn1)[C@@H](C)O)[C@@H](C)O)C(C)C)[C@@H](C)O)C(C)C)C(=O)N[C@@H](CC(C)C)C(=O)NC(C)(C)C(=O)N[C@@H](CCC(=O)O)C(N)=O
B2: Peptide 513 (peptide)
peptide: H[Aib]QGT[αMeF]TSDVSK[αMeF]LDTK([AEEA-AEEA-γGlu-C18 diacid])RARD[αMeF]VQWLLA[Aib]G-NH2
modifications: N-terminus assumed
SMILES: CC(C)C[C@H](NC(=O)[C@H](CC(C)C)NC(=O)[C@H](Cc1c[nH]c2ccccc12)NC(=O)[C@H](CCC(N)=O)NC(=O)[C@@H](NC(=O)[C@](C)(Cc1ccccc1)NC(=O)[C@H](CC(=O)O)NC(=O)[C@H](CCCNC(=N)N)NC(=O)[C@H](C)NC(=O)[C@H](CCCNC(=N)N)NC(=O)[C@H](CCCCNC(=O)COCCOCCNC(=O)COCCOCCNC(=O)CC[C@H](NC(=O)CCCCCCCCCCCCCCCCC(=O)O)C(=O)O)NC(=O)[C@@H](NC(=O)[C@H](CC(=O)O)NC(=O)[C@H](CC(C)C)NC(=O)[C@](C)(Cc1ccccc1)NC(=O)[C@H](CCCCN)NC(=O)[C@H](CO)NC(=O)[C@@H](NC(=O)[C@H](CC(=O)O)NC(=O)[C@H](CO)NC(=O)[C@@H](NC(=O)[C@](C)(Cc1ccccc1)NC(=O)[C@@H](NC(=O)CNC(=O)[C@H](CCC(N)=O)NC(=O)C(C)(C)NC(=O)[C@@H](N)Cc1c[nH]cn1)[C@@H](C)O)[C@@H](C)O)C(C)C)[C@@H](C)O)C(C)C)C(=O)N[C@@H](C)C(=O)NC(C)(C)C(=O)NCC(N)=O
B3: Peptide 517 (peptide)
peptide: H[Aib]QGTFTSDVSK[αMeF]LEAK([AEEA-AEEA-γGlu-γGlu-C18 diacid])AAREFIAWLLET-NH2
modifications: N-terminus assumed
SMILES: CC[C@H](C)[C@H](NC(=O)[C@H](Cc1ccccc1)NC(=O)[C@H](CCC(=O)O)NC(=O)[C@H](CCCNC(=N)N)NC(=O)[C@H](C)NC(=O)[C@H](C)NC(=O)[C@H](CCCCNC(=O)COCCOCCNC(=O)COCCOCCNC(=O)CC[C@H](NC(=O)CC[C@H](NC(=O)CCCCCCCCCCCCCCCCC(=O)O)C(=O)O)C(=O)O)NC(=O)[C@H](C)NC(=O)[C@H](CCC(=O)O)NC(=O)[C@H](CC(C)C)NC(=O)[C@](C)(Cc1ccccc1)NC(=O)[C@H](CCCCN)NC(=O)[C@H](CO)NC(=O)[C@@H](NC(=O)[C@H](CC(=O)O)NC(=O)[C@H](CO)NC(=O)[C@@H](NC(=O)[C@H](Cc1ccccc1)NC(=O)[C@@H](NC(=O)CNC(=O)[C@H](CCC(N)=O)NC(=O)C(C)(C)NC(=O)[C@@H](N)Cc1c[nH]cn1)[C@@H](C)O)[C@@H](C)O)C(C)C)C(=O)N[C@@H](C)C(=O)N[C@@H](Cc1c[nH]c2ccccc12)C(=O)N[C@@H](CC(C)C)C(=O)N[C@@H](CC(C)C)C(=O)N[C@@H](CCC(=O)O)C(=O)N[C@H](C(N)=O)[C@@H](C)O
B4: Peptide 510 (peptide)
peptide: H[Aib]QGTFTSDVSK[αMeF]LDTK([AEEA-AEEA-γGlu-C20 diacid])RARDFVRWLL[Aib]E-OH
modifications: N-terminus assumed
SMILES: CC(C)C[C@H](NC(=O)[C@H](Cc1c[nH]c2ccccc12)NC(=O)[C@H](CCCNC(=N)N)NC(=O)[C@@H](NC(=O)[C@H](Cc1ccccc1)NC(=O)[C@H](CC(=O)O)NC(=O)[C@H](CCCNC(=N)N)NC(=O)[C@H](C)NC(=O)[C@H](CCCNC(=N)N)NC(=O)[C@H](CCCCNC(=O)COCCOCCNC(=O)COCCOCCNC(=O)CC[C@H](NC(=O)CCCCCCCCCCCCCCCCCCC(=O)O)C(=O)O)NC(=O)[C@@H](NC(=O)[C@H](CC(=O)O)NC(=O)[C@H](CC(C)C)NC(=O)[C@](C)(Cc1ccccc1)NC(=O)[C@H](CCCCN)NC(=O)[C@H](CO)NC(=O)[C@@H](NC(=O)[C@H](CC(=O)O)NC(=O)[C@H](CO)NC(=O)[C@@H](NC(=O)[C@H](Cc1ccccc1)NC(=O)[C@@H](NC(=O)CNC(=O)[C@H](CCC(N)=O)NC(=O)C(C)(C)NC(=O)[C@@H](N)Cc1c[nH]cn1)[C@@H](C)O)[C@@H](C)O)C(C)C)[C@@H](C)O)C(C)C)C(=O)N[C@@H](CC(C)C)C(=O)NC(C)(C)C(=O)N[C@@H](CCC(=O)O)C(=O)O
B5: Peptide 512 (peptide)
peptide: H[Aib]QGT[αMeF]TSDVSK[αMeF]LDTK([AEEA-AEEA-γGlu-C18 diacid])RAQD[αMeF]VRWLLA[Aib]G-NH2
modifications: N-terminus assumed
SMILES: CC(C)C[C@H](NC(=O)[C@H](CC(C)C)NC(=O)[C@H](Cc1c[nH]c2ccccc12)NC(=O)[C@H](CCCNC(=N)N)NC(=O)[C@@H](NC(=O)[C@](C)(Cc1ccccc1)NC(=O)[C@H](CC(=O)O)NC(=O)[C@H](CCC(N)=O)NC(=O)[C@H](C)NC(=O)[C@H](CCCNC(=N)N)NC(=O)[C@H](CCCCNC(=O)COCCOCCNC(=O)COCCOCCNC(=O)CC[C@H](NC(=O)CCCCCCCCCCCCCCCCC(=O)O)C(=O)O)NC(=O)[C@@H](NC(=O)[C@H](CC(=O)O)NC(=O)[C@H](CC(C)C)NC(=O)[C@](C)(Cc1ccccc1)NC(=O)[C@H](CCCCN)NC(=O)[C@H](CO)NC(=O)[C@@H](NC(=O)[C@H](CC(=O)O)NC(=O)[C@H](CO)NC(=O)[C@@H](NC(=O)[C@](C)(Cc1ccccc1)NC(=O)[C@@H](NC(=O)CNC(=O)[C@H](CCC(N)=O)NC(=O)C(C)(C)NC(=O)[C@@H](N)Cc1c[nH]cn1)[C@@H](C)O)[C@@H](C)O)C(C)C)[C@@H](C)O)C(C)C)C(=O)N[C@@H](C)C(=O)NC(C)(C)C(=O)NCC(N)=O
B6: Peptide 514 (peptide)
peptide: H[Aib]QGTFTSDVSK[αMeF]LDTK([AEEA-AEEA-γGlu-C18 diacid])AARDFVQWLLE[Aib]G-NH2
modifications: N-terminus assumed
SMILES: CC(C)C[C@H](NC(=O)[C@H](Cc1c[nH]c2ccccc12)NC(=O)[C@H](CCC(N)=O)NC(=O)[C@@H](NC(=O)[C@H](Cc1ccccc1)NC(=O)[C@H](CC(=O)O)NC(=O)[C@H](CCCNC(=N)N)NC(=O)[C@H](C)NC(=O)[C@H](C)NC(=O)[C@H](CCCCNC(=O)COCCOCCNC(=O)COCCOCCNC(=O)CC[C@H](NC(=O)CCCCCCCCCCCCCCCCC(=O)O)C(=O)O)NC(=O)[C@@H](NC(=O)[C@H](CC(=O)O)NC(=O)[C@H](CC(C)C)NC(=O)[C@](C)(Cc1ccccc1)NC(=O)[C@H](CCCCN)NC(=O)[C@H](CO)NC(=O)[C@@H](NC(=O)[C@H](CC(=O)O)NC(=O)[C@H](CO)NC(=O)[C@@H](NC(=O)[C@H](Cc1ccccc1)NC(=O)[C@@H](NC(=O)CNC(=O)[C@H](CCC(N)=O)NC(=O)C(C)(C)NC(=O)[C@@H](N)Cc1c[nH]cn1)[C@@H](C)O)[C@@H](C)O)C(C)C)[C@@H](C)O)C(C)C)C(=O)N[C@@H](CC(C)C)C(=O)N[C@@H](CCC(=O)O)C(=O)NC(C)(C)C(=O)NCC(N)=O
B7: Peptide 515 (peptide)
peptide: H[Aib]QGTFTSDVSK[αMeF]LDTK([AEEA-AEEA-γGlu-C20 diacid])AARDFVQWLLE[Aib]G-NH2
modifications: N-terminus assumed
SMILES: CC(C)C[C@H](NC(=O)[C@H](Cc1c[nH]c2ccccc12)NC(=O)[C@H](CCC(N)=O)NC(=O)[C@@H](NC(=O)[C@H](Cc1ccccc1)NC(=O)[C@H](CC(=O)O)NC(=O)[C@H](CCCNC(=N)N)NC(=O)[C@H](C)NC(=O)[C@H](C)NC(=O)[C@H](CCCCNC(=O)COCCOCCNC(=O)COCCOCCNC(=O)CC[C@H](NC(=O)CCCCCCCCCCCCCCCCCCC(=O)O)C(=O)O)NC(=O)[C@@H](NC(=O)[C@H](CC(=O)O)NC(=O)[C@H](CC(C)C)NC(=O)[C@](C)(Cc1ccccc1)NC(=O)[C@H](CCCCN)NC(=O)[C@H](CO)NC(=O)[C@@H](NC(=O)[C@H](CC(=O)O)NC(=O)[C@H](CO)NC(=O)[C@@H](NC(=O)[C@H](Cc1ccccc1)NC(=O)[C@@H](NC(=O)CNC(=O)[C@H](CCC(N)=O)NC(=O)C(C)(C)NC(=O)[C@@H](N)Cc1c[nH]cn1)[C@@H](C)O)[C@@H](C)O)C(C)C)[C@@H](C)O)C(C)C)C(=O)N[C@@H](CC(C)C)C(=O)N[C@@H](CCC(=O)O)C(=O)NC(C)(C)C(=O)NCC(N)=O

biological target: human glucagon receptor (hGCGR) (human, UniProt P47871 26-477); experiment: cell-based or functional assay
Sequence (P47871 26-477): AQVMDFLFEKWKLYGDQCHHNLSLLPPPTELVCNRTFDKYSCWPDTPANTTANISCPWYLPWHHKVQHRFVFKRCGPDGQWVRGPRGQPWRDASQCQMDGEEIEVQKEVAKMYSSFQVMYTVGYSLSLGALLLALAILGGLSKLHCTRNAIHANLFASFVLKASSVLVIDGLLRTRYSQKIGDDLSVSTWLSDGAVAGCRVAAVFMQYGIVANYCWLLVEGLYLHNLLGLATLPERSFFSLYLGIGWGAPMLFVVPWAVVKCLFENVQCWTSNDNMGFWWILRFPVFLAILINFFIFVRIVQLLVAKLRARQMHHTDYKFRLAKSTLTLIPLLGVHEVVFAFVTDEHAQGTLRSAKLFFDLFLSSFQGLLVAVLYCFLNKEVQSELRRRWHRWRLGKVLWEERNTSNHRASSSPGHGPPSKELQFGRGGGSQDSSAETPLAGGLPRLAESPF

| hGluc-R EC50 (pM) | Binder |
| --- | --- |
| 140 pM | B1 |
| 1340 pM | B2 |
| 738 pM | B3 |
| 118 pM | B4 |
| 2310 pM | B5 |
| 1370 pM | B6 |
| 2660 pM | B7 |

biological target: human GLP-1 receptor (hGLP-1R) (human, UniProt P43220 24-463); experiment: cell-based or functional assay

| hGLP-1R EC50 (pM) | Binder |
| --- | --- |
| 118 pM | B1 |
| 93.8 pM | B2 |
| 146 pM | B3 |
| 176 pM | B4 |
| 159 pM | B5 |
| 76.7 pM | B6 |
| 297 pM | B7 |
